Results taken from publication PMC3947372 (Journal of molecular biology, 2013).

Target: the molecule itself
Assay: crystal structure

B1: NaVAe1p, pore-only sodium channel protein derived from the Alkalilimnicola ehrlichei BacNaV NaVAe1 (domain or fragment)
chain: LLRAIPGIAWIALLLLVIFYVFAVMGTKLFAQSFPEWFGTLGASMYTLFQVMTLESWSMGIARPVIEAYPWAWIYFVSFILVSSFTVLNLFIGIIIESMQSAHWEAEDAKRIEQEQRAHDERLEMLQLIRDLSSKVDRLERRSGKR
For B1, the “stoichiometry N” value was 4.
